Measurements reported in FireProtDB (doi:10.1021/bi00150a028).

Details: Homo sapiens, pH 3, Thermal, DSC, glycine-HCl 0.05 M, reversible: yes, whole UniProt chain shown

B1: Lysozyme C wild type, P61626 (protein)
chain: MKALIVLGLVLLSVTVQGKVFERCELARTLKRLGMDGYRGISLANWMCLAKWESGYNTRATNYNAGDRSTDYGIFQINSRYWCNDGKTPGAVNACHLSCSALLQDNIADAVACAKRVVRDPQGIRAWVAWRNRCQNRDVRQYVQGCGV
Question: Which results are given for B1?
Answer: heat capacity change of unfolding (57 °C): 1.55 kcal/mol/K; unfolding enthalpy (calorimetric) (57 °C): 101 kcal/mol; unfolding free energy (57 °C): 4.6 kcal/mol; Tm: 71.4 °C
